Source: patent US20080051336A1 (Janssen / Centocor, published 2008)
Like-named read-outs stand apart in the source and are kept apart here. One block for each binder: values may come before it. Ends that are not written are not given here.

Legend:
[1] = biological target: T1, human LGR7 (human, UniProt Q9HBX9 1-757); test: competition with [125I]-relaxin-3 (100 pM) on live COS-7 cells expressing human LGR7; ND denotes no activity was detected
T1 construct: whole, on cells
T1 sequence (looked up): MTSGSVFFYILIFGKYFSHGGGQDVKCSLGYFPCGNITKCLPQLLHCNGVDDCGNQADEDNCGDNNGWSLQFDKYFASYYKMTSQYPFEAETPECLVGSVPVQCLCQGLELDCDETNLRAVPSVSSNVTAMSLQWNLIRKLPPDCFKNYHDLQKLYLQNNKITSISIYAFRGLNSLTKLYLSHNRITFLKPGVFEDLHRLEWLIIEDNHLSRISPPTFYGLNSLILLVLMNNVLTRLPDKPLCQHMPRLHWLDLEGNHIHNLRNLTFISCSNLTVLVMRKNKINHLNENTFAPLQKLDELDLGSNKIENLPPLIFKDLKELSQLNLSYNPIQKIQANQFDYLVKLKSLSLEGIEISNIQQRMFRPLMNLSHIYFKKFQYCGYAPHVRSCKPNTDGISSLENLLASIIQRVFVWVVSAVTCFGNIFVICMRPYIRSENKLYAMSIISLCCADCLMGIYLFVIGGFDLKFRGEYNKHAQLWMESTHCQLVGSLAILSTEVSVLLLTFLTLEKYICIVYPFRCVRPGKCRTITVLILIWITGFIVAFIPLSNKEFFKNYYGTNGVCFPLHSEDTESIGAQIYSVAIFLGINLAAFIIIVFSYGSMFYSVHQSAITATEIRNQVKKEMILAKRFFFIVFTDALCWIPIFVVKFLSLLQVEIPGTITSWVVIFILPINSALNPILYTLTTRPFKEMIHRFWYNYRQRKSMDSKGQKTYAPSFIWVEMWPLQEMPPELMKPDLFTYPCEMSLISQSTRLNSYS
Method: (§1) Different unlabeled peptides were used in the binding assay as the competitors. […] Data represent mean±SEM (n=3).
(§2) Radioligand binding assays for LGR7 and LGR8 were performed using live COS-7 cells transiently transfected with LGR7 or LGR8 expression plasmids in 15-cm culture dishes using LipofectAmine (Invitrogen). Two days after transfection, the transfected cells were detached from the 15-cm culture dished using phosphate buffered saline (PBS) plus 10 mM EDTA, seeded into 96-well opaque poly-D-lysine coated culture plates and used for radioligand binding assays. […] [¹²⁵I]-labeled tracer was added in binding reactions at a final concentration of 100 pM in binding buffer containing DMEM plus 50 mM HEPES and 1% bovine serum albumin. […] The binding mixtures were incubated at room temperature for 1 hour. The unbound radioligand was removed by aspiration of the binding buffer. The cells were washed with PBS. The bound radioligand was counted in a scintillation counter (TopCount/NTX). The results were analyzed using Prism 3.0 program (Graphpad, San Diego, Calif.).

[2] = biological target: T2, human GPCR135 (human, UniProt Q9NSD7 1-469); test: competition with [125I]-relaxin-3 (100 pM), COS-7 membranes with human GPCR135
T2 construct: Recombinant; also called SALPR
T2 sequence: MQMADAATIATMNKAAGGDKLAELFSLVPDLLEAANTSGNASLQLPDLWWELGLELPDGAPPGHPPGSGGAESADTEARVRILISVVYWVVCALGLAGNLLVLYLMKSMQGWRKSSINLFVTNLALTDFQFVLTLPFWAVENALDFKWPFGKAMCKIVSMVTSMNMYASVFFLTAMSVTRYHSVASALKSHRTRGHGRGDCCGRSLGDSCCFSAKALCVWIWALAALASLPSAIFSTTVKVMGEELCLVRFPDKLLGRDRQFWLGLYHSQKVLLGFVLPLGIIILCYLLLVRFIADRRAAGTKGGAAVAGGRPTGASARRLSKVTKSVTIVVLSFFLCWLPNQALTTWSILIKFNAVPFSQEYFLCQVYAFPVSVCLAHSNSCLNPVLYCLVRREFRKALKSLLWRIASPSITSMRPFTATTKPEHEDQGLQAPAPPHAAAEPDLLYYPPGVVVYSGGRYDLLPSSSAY
Method: as §1
(§3) Peptides for competition binding studies were added to the binding mix (final volume: 200 μl) in binding buffer [50 mM Tris-HCl, pH 7.5, 5 mM EDTA, 1% bovine serum albumin, 0.1% protease inhibitor cocktails (Sigma)]. The binding mixtures were incubated at room temperature for 1 hour, filtered through GFC plates (Packard) pre-saturated with 0.3% Polyethylenimine (Sigma), and washed with cold washing buffer (50 mM Tris-HCl, pH 7.5, 5 mM EDTA).

[3] = biological target: T3, human LGR8 (human, UniProt Q8WXD0 1-754); test: competition with [125I]-INSL3 (100 pM) on live COS-7 cells expressing human LGR8; ND denotes no activity was detected
T3 construct: whole, on cells
Method: as §1, §2

[4] = biological target: T4, human GPCR142 (human, UniProt Q8TDU9 1-374); test: competition with [125I]-relaxin-3 (100 pM), COS-7 membranes with human GPCR142
T4 construct: Recombinant
Method: as §1, §3

[5] = biological target: T4, human GPCR142; test: cell-based or functional assay
[6] = biological target: T2, human GPCR135; test: cell-based or functional assay
[7] = biological target: T5, rat GPCR135 (rat, UniProt Q8BGE9 1-472 (mouse entry)); test: competition with [125I]R3 (100 pM), COS-7 membranes with rat GPCR135
T5 construct: Also tested as the native receptor in rat brain sections; also called rat GPCR135 receptors
T5 chain: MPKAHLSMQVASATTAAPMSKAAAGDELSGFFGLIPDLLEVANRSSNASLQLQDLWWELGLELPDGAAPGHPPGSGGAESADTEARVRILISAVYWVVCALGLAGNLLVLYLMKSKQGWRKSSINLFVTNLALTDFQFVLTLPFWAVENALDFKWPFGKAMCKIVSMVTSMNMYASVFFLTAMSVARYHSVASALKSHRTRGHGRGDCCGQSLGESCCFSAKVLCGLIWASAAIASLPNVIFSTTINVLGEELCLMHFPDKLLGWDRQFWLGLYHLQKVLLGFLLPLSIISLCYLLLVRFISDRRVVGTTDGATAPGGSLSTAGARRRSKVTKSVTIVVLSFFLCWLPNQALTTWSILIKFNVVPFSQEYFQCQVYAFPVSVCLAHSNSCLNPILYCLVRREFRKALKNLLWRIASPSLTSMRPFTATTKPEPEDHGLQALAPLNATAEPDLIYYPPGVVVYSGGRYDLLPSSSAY
Method: (§4) The reaction was incubated at room temperature for 1 hour and the membranes were filtered through the 96-well GFC plates (Packard Instrument Co., Meriden, Conn.) using a cell harvester (Packard Instrument Co). The filter was washed with the ice cold washing buffer (50 mM Tris-HCl, pH 7.5). Fifty μl of Microscint 40 (Packard Instrument Co) was added to each well and the plates were counted on a Topcount NTX (Packard Instrument Co). […] The results were analyzed using the PRISM software (GraphPad, San Diego, Calif.).

[8] = biological target: T6, rat LGR7 (rat, UniProt Q6R6I6 1-758); test: competition with [125I]R2 (100 pM), COS-7 membranes with rat LGR7
T6 construct: whole, on cells; Tested as membranes of transfected COS-7 cells; also called rat LGR7 receptors
T6 sequence (looked up): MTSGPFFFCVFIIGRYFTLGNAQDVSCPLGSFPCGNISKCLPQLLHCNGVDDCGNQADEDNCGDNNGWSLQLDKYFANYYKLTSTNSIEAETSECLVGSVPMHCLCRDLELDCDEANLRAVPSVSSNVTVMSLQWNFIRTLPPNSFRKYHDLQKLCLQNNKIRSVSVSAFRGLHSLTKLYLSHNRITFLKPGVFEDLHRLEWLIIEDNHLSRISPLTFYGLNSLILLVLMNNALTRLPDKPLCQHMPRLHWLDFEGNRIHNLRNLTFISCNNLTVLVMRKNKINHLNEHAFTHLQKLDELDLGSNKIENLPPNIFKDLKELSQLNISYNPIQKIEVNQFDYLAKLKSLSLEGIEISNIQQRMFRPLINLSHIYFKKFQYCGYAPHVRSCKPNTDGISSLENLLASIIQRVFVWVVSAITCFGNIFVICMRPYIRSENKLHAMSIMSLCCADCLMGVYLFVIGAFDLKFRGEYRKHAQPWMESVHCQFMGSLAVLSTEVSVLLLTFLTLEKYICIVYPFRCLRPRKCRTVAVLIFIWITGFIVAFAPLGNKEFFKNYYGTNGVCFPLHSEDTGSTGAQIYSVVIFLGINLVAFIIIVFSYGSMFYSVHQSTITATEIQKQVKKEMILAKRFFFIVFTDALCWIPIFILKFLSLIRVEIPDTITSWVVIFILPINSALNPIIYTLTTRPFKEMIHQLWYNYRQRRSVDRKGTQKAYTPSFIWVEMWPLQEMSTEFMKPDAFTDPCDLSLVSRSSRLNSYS
Method: as §4

[9] = biological target: T5, rat GPCR135; test: inhibition of [125I]R3/I5 binding sites, quantitative receptor autoradiography, rat olfactory bulb
Method: (§5) Sections were thawed and dried under a cold air stream and then pre-incubated for 15 min. at room temperature in incubation buffer (20 mM HEPES, pH 7.4, 120 mM NaCl₂, 0.22 mM KH₂PO₄, 1.3 mM CaCl₂, 0.8 mM MgSO₄) by immersing sections in a 400 ml jar. […] After incubation, the excess radioligand was washed off by immersing the slides in the jar containing incubation buffer at 4° C. (3 times 10 min.) followed by a quick immersion in water. […] The imaging plates were scanned using the Fuji Bio-Imaging Analyzer System (BAS-5000, Fuji Medical System, CT) and visualized using ImageGauge V3.12 software (Fuji Medical System, CT).

[10] = biological target: T1, human LGR7; test: cell-based or functional assay
[11] = biological target: T5, rat GPCR135; test: inhibition of [125I]R3/I5 binding sites, quantitative receptor autoradiography, rat cortex
Method: as §5

[12] = biological target: T5, rat GPCR135; test: inhibition of [125I]R3/I5 binding sites, quantitative receptor autoradiography, rat superior colliculus
Method: as §5

[13] = biological target: T5, rat GPCR135; test: competition with [125I]-R3 (100 pM), COS-7 membranes with rat GPCR135
Method: as §4

[14] = biological target: T1, human LGR7; test: competition with [125I]-relaxin-3 (100 pM), live COS-7 cells with human LGR7
Method: as §1, §2

[15] = biological target: T1, human LGR7; test: discussion of the radioligand binding results
[16] = biological target: T2, human GPCR135; test: discussion of the radioligand binding results
[17] = biological target: T1, human LGR7; test: cell-based or functional assay; remark: listed apart in the source
[18] = biological target: T1, human LGR7; test: radioligand competition, live COS-7 cells with human LGR7
Method: as §1, §2

[19] = biological target: T5, rat GPCR135; test: radioligand competition, COS-7 membranes; reference rat LGR7
Method: as §4

T4 sequence (Q8TDU9 whole entry L329S): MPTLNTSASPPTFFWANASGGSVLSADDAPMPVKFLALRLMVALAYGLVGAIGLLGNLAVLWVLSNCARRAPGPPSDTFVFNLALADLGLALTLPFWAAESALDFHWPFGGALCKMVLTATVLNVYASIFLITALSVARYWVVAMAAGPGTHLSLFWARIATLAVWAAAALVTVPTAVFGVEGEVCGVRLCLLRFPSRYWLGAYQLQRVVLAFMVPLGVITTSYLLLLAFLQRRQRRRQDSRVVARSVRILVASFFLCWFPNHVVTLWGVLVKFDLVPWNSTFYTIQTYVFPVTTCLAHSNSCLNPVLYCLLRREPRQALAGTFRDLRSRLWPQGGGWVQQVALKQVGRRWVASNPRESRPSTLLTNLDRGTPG
T3 sequence (Q8WXD0 whole entry): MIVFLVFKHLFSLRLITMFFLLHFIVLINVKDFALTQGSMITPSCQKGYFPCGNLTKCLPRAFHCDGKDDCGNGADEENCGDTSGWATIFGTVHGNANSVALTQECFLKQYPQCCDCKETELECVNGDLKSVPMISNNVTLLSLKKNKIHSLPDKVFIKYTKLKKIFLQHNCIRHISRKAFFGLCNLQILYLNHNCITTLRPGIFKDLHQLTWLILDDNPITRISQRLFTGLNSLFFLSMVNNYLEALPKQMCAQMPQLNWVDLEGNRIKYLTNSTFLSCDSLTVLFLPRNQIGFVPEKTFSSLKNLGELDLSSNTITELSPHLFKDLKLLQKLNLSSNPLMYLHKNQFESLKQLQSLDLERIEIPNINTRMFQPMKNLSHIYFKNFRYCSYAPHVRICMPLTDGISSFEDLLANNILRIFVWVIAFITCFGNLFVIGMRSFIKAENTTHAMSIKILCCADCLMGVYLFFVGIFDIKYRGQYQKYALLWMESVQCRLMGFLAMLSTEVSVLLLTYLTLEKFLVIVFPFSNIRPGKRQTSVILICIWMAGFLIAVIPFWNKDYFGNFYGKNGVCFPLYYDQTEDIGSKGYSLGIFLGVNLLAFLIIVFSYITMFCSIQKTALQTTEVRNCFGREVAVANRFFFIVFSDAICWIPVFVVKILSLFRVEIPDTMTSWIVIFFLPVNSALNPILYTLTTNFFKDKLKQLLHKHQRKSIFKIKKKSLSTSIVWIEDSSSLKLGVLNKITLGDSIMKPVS

B3: human relaxin-3 (ligand)
chain: RAAPYGVRLCGREFIRAVIFTCGGSRWDVLAGLSSSCCKWGCSKSEISSLC
modifications: disulfide (positions not given here); also: two-chain peptide (A and B chains), disulfide-linked, places not given here
notes: Mature two-chain peptide (A-chain and B-chain, disulfide-linked); It is not clear whether that entry holds the B-chain alone or both chains; also called R3; INSL7
IC50 [9]: 0.3 nM
EC50, stimulation of β-galactosidase activity [10]: 1.4 nM
IC50 [11]: 0.4 nM
IC50 [12]: 0.3 nM

B4: human relaxin-3/INSL5 chimeric polypeptide (R3/I5), mature (ligand)
chain: RAAPYGVRLCGREFIRAVIFTCGGSRWQDLQTLCCTDGCSMTDLSALC
modifications: disulfide (positions not given here); also: two chains (relaxin-3 B-chain, INSL5 A-chain), disulfide-linked, chain break not marked
notes: Mature two-chain peptide: human relaxin-3 B-chain disulfide-linked to human INSL5 A-chain; FLAG tag removed; the tracer is kept under this same molecule; also called R3/5; I5/R3
IC50 [2]: 0.68 nM
IC50 [13]: 0.5 nM
EC50, ligand stimulated β-galactosidase expression [10]: ~400 nM
IC50 [14]: 724 nM
Kd [15]: ~500 nM
Kd [16]: ~0.5 nM
binding result [3]: no binding
IC50 [8]: > 400 nM
IC50 [4]: 1.4 nM
EC50, ligand stimulated β-galactosidase expression [17]: 412 nM
EC50, inhibition of forskolin stimulated β-galactosidase expression [5]: 0.91 nM
EC50, inhibition of forskolin stimulated β-galactosidase expression [6]: 0.45 nM
IC50 [18]: ~500 nM
fold selectivity over rat LGR7 [19]: 800 fold

Continued, values first:

binding result [1]: no binding (tested: 1 µM)
IC50 [2]: > 1000 nM
binding result [3]: no binding
IC50 [4]: > 1000 nM
EC50, inhibition of forskolin stimulated β-galactosidase expression [5]: > 1000 nM
EC50, inhibition of forskolin stimulated β-galactosidase expression [6]: > 1000 nM
B1: human relaxin-3/INSL4 chimeric polypeptide (R3/I4), mature (ligand)
chain: RAAPYGVRLCGREFIRAVIFTCGGSRWFDPFCCEVICDDGTSVKLC
modifications: disulfide (positions not given here); also: two chains (relaxin-3 B-chain, INSL4 A-chain), disulfide-linked, chain break not marked
notes: Mature two-chain peptide: human relaxin-3 B-chain disulfide-linked to human INSL4 A-chain; FLAG tag removed

IC50 [7]: > 1000 nM
IC50 [8]: 0.2 nM
B2: human relaxin (R1) (ligand)
chain: KWKDDVIKLCGRELVRAQIAICGMSTWSRPYVALFEKCCLIGCTKRSLAKYC
notes: also called relaxin-1
